Measurements reported in patent US20070117770, “Human ribosomal DNA (rDNA) and ribosomal RNA (rRNA) nucleic acids and uses thereof” (Cylene Pharmaceuticals, Inc., published 2007).

Key:
[1] = target: T1, Nucleolin (MBP fusion, lacking N-terminal acidic stretches domain) (Homo sapiens, UniProt P19338 P19338:284-710); experiment: filter; Bmax 21%; 60 mM KCl, 1 mM MgCl2; conditions: label: 32P; G4 motif, CD not determined
Method: (§1) The assay also was conducted in a filter-binding format. In such forms of the assay, 0.2 nM of ³²P-labeled quadruplexes were incubated in 50 uL of the binding buffer (12.5 mM Tris-HCl, pH 7.6, 60 mM KCl, 1 mM MgCl2, 0.1 mM EDTA, 5% glycerol, 0.1 mg/mL BSA) for 10 min at 85 C and then for 10 min on ice and mixed with another 50 uL of binding buffer containing increasing amounts of recombinant protein Nucleolin. The protein-quadruplex mixtures were incubated for 30 min at ambient temperature and filtered through mixed cellulose ester membrane filters (Millipore) with gentle suction. The filters were washed twice with […] of binding buffer, dried and OptiPhase ‘SuperMix’ scintillation cocktail (Perkin Elmer) was added to the wells. Radioactivity was assayed with MicroBeta scintillation counter (Perkin Elmer). Binding curves were constructed and apparent Kd's and Bmax's for the complexes were calculated using the GraphPad Prizm software program (GraphPad Software). […]

[2] = target: T1, Nucleolin (MBP fusion, lacking …); experiment: filter; 60 mM KCl, 1 mM MgCl2; conditions: label: 32P
Method: The assay also was conducted in a filter-binding format. In such forms of the assay, 0.2 nM of ³²P-labeled quadruplexes were incubated in 50 uL of the binding buffer (12.5 mM Tris-HCl, pH 7.6, 60 mM KCl, 1 mM MgCl2, 0.1 mM EDTA, 5% glycerol, 0.1 mg/mL BSA) for 10 min at 85 C and then for 10 min on ice and mixed with another 50 uL of binding buffer containing increasing amounts of recombinant protein Nucleolin. The protein-quadruplex mixtures were incubated for 30 min at ambient temperature and filtered through mixed cellulose ester membrane filters (Millipore) with gentle suction. The filters were washed twice with […] of binding buffer, dried and OptiPhase ‘SuperMix’ scintillation cocktail (Perkin Elmer) was added to the wells. Radioactivity was assayed with MicroBeta scintillation counter (Perkin Elmer). Binding curves were constructed and apparent Kd's and Bmax's for the complexes were calculated using the GraphPad Prizm software program (GraphPad Software). In the following table, the nucleic acid ligand is designated in the first column using the nomenclature described herein; the second column provides the nucleotide sequence of the nucleic acid ligand; the third column is the conformation of the ligand as determined by circular dichroism (M is mixed, P is parallel, A is antiparallel, C is complex, SS is single-stranded and ND is not determined); the fourth column is the dissociation constant determined by the filter binding assay of nucleolin protein and the nucleic acid ligand; the fifth column is a Bmax constant determined by the filter binding assay, which is the percent of active nucleic acid ligand in each assay; and the sixth column presents the concentration of Compound A-1 required to dissociate half of the complexed nucleic acid ligand and nucleolin protein, as determined by the EMSA assay described above.

[3] = target: T1, Nucleolin (MBP fusion, lacking …); experiment: filter; Bmax 35%; 60 mM KCl, 1 mM MgCl2; conditions: label: 32P; G4 motif, CD not determined
Method: as §1

[4] = target: T1, Nucleolin (MBP fusion, lacking …); experiment: filter; apparent Kd; Bmax 41%; 12.5 mM Tris-HCl pH 7.6, 60 mM KCl, 1 mM MgCl2, ambient temperature; conditions: label: 32P; G4 mixed
Method: as §1

[5] = target: T1, Nucleolin (MBP fusion, lacking …); experiment: filter; Bmax 37%; 60 mM KCl, 1 mM MgCl2; conditions: label: 32P; G4 parallel
Method: as §1

[6] = target: T1, Nucleolin (MBP fusion, lacking …); experiment: filter; Bmax 33%; 60 mM KCl, 1 mM MgCl2; conditions: label: 32P; G4 parallel
Method: as §1

[7] = target: T1, Nucleolin (MBP fusion, lacking …); experiment: filter; Bmax 43%; 60 mM KCl, 1 mM MgCl2; conditions: label: 32P; G4 motif, CD not determined
Method: as §1

[8] = target: T1, Nucleolin (MBP fusion, lacking …); experiment: filter; Bmax 47%; 60 mM KCl, 1 mM MgCl2; conditions: label: 32P
Method: as §1

[9] = target: T1, Nucleolin (MBP fusion, lacking …); experiment: filter; Bmax 65%; 60 mM KCl, 1 mM MgCl2; conditions: label: 32P; G4 motif, CD not determined
Method: as §1

[10] = target: T1, Nucleolin (MBP fusion, lacking …); experiment: filter; Bmax 52%; 60 mM KCl, 1 mM MgCl2; conditions: label: 32P; G4 motif, CD not determined
Method: as §1

[11] = target: T1, Nucleolin (MBP fusion, lacking …); experiment: filter; Bmax 66%; 60 mM KCl, 1 mM MgCl2; conditions: label: 32P; G4 mixed
Method: as §1

[12] = target: T1, Nucleolin (MBP fusion, lacking …); experiment: filter; Bmax 32%; 60 mM KCl, 1 mM MgCl2; conditions: label: 32P
Method: as §1

[13] = target: T1, Nucleolin (MBP fusion, lacking …); experiment: filter; Bmax 20%; 60 mM KCl, 1 mM MgCl2; conditions: label: 32P; G4 motif, CD not determined
Method: as §1

[14] = target: T1, Nucleolin (MBP fusion, lacking …); experiment: filter; Bmax 50%; 60 mM KCl, 1 mM MgCl2; conditions: label: 32P
Method: as §1

[15] = target: T1, Nucleolin (MBP fusion, lacking …); experiment: filter; Bmax 82%; 60 mM KCl, 1 mM MgCl2; conditions: label: 32P; G4 motif, CD not determined
Method: as §1

[16] = target: T1, Nucleolin (MBP fusion, lacking …); experiment: filter; Bmax 84%; 60 mM KCl, 1 mM MgCl2; conditions: label: 32P; G4 mixed
Method: as §1

[17] = target: T1, Nucleolin (MBP fusion, lacking …); experiment: filter; Bmax 16%; 60 mM KCl, 1 mM MgCl2; conditions: label: 32P; G4 motif, CD not determined
Method: as §1

[18] = target: T1, Nucleolin (MBP fusion, lacking …); experiment: filter; Bmax 53%; 60 mM KCl, 1 mM MgCl2; conditions: label: 32P; G4 mixed
Method: as §1

[19] = target: T1, Nucleolin (MBP fusion, lacking …); experiment: filter; Bmax 31%; 60 mM KCl, 1 mM MgCl2; conditions: label: 32P; G4 motif, CD not determined
Method: as §1

[20] = target: T1, Nucleolin (MBP fusion, lacking …); experiment: filter; Bmax 55%; 60 mM KCl, 1 mM MgCl2; conditions: label: 32P; G4 motif, CD not determined
Method: as §1

[21] = target: T1, Nucleolin (MBP fusion, lacking …); experiment: filter; Bmax 26%; 60 mM KCl, 1 mM MgCl2; conditions: label: 32P; G4 mixed
Method: as §1

[22] = target: T1, Nucleolin (MBP fusion, lacking …); experiment: filter; Bmax 49%; 60 mM KCl, 1 mM MgCl2; conditions: label: 32P; G4 motif, CD not determined
Method: as §1

[23] = target: T1, Nucleolin (MBP fusion, lacking …); experiment: filter; Bmax 100%; sequence taken from Example 6 table; conditions: label: 32P; G4 complex
Method: as §1

T1 sequence (P19338 284-710, one chain of several): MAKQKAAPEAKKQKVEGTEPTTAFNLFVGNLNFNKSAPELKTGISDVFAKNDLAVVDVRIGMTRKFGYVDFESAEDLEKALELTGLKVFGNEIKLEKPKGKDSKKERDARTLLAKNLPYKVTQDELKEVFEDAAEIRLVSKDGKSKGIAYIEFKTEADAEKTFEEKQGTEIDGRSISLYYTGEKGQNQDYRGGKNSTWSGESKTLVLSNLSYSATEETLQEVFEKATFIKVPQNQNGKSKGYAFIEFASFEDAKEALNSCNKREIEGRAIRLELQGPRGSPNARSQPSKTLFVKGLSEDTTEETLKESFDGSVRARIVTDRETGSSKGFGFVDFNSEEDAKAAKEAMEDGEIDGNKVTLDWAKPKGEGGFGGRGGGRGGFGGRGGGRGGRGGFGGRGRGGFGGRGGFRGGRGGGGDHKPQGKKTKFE

B1: 3468T (structured_DNA)
DNA: AGGGACCGGTGGGGCCGGGGCGGGG
Kd [1]: 2.4 nM

B2: 13236T (structured_DNA)
DNA: AGGGACGGGGACCGGCGGGCCACGGGG
Kd ([2]; G4 motif, CD not determined): > 30 nM

B3: 10985T (structured_DNA)
DNA: AGGGGAGGGGGGAGGACGGGGAGCGGGGG
Kd [3]: 0.2 nM

B4: 1196NT (structured_DNA)
DNA: GGGTGGACGGGGGGGCCTGGTGGGG
Kd [4]: 4.2 nM

B5: 13079NT (structured_DNA)
DNA: GGGGTGGGGGGGAGGG
Kd [5]: 2.6 nM

B6: Myc27 (structured_DNA)
DNA: TGGGGAGGGTGGGGAGGGTGGGGAATT
Kd [6]: 4.4 nM

B7: 9024T (structured_DNA)
DNA: AGGGGCGGGGGCGCGGGGAGGAGGGGTGGG
Kd [7]: 0.3 nM

B8: 8440T (structured_DNA)
DNA: AGGGGCGGCGGGGGAAGGGAGGGCGGGTGGAGGGGTCGGGAGGAACGGGGGGCGGG
Kd [3]: 0.3 nM

B9: GGA4 (structured_DNA)
DNA: GGAGGAGGAGGA
Kd ([2]; G4 parallel): > 30 nM

B10: 11888T (structured_DNA)
DNA: AGGGGACACCGGGGGGGCGCCGGGGG
Kd ([8]; G4 motif, CD not determined): 0.2 nM

B11: 6374NT (structured_DNA)
DNA: GGGGGCGGGAACCCCCGGGCGCCTGTGGG
Kd ([8]; G4 mixed): 5.5 nM

B12: 10137T (structured_DNA)
DNA: AGGGGCTCCGGGGGCGGGGAGCGGGGCGTGGGCGGGAGGAGGGG
Kd [9]: 0.4 nM

B13: 10951T (structured_DNA)
DNA: AGGGCGCGGGGTGGGGAGGG
Kd [10]: 0.2 nM

B14: 2957NT (structured_DNA)
DNA: GGGTCGGGGGGTGGGGCCCGGGCCGGGG
Kd [11]: 2.7 nM

B15: 11345T (structured_DNA)
DNA: AGGGGGGAACGGGGGGCGGACGGGGCCGGGGGGGTAGGGCGGGGGG
Kd ([12]; G4 motif, CD not determined): 0.3 nM

B16: 3500T (structured_DNA)
DNA: AGGGCGGACGGGAGGGAGCGAGCGGGCGCGGGGG
Kd [13]: 1.1 nM

B17: 6914T (structured_DNA)
DNA: GGGCCCGCGGGGGGAGGGGGAAGGGGCGGG
Kd ([14]; G4 mixed): 0.8 nM

B18: 11028NT (structured_DNA)
DNA: GGGGCGCGGCGGGGGGAGAAGGGTCGGGGCGGCAGGGG
Kd ([12]; G4 mixed): 2.7 nM

B19: 1310T (structured_DNA)
DNA: AGGGACGCCTGGGGAAGGGAGGGGG
Kd ([14]; G4 motif, CD not determined): 4.4 nM

B20: hTel (structured_DNA)
DNA: AGGGTTAGGGTTAGGGTTAGGG
Kd ([2]; G4 antiparallel): > 30 nM

B21: 10885T (structured_DNA)
DNA: AGGGTGGGGCGGGGGAGGGCCGCGAGGGGGGTGCCCCGGGCGTGGGGGGGG
Kd [15]: 0.2 nM

B22: 5701NT (structured_DNA)
DNA: AGGGAGGGAGACGGGGGGG
Kd [16]: 3.2 nM

B23: 7499T (structured_DNA)
DNA: AGGGCGGGCGGCGGGGCGGG
Kd [17]: 1.1 nM

B24: 7733T (structured_DNA)
DNA: GGGAGGGGCACGGGCCGGGGGCGGGACGGG
Kd [18]: 0.8 nM

B25: 8904T (structured_DNA)
DNA: AGGGGGTGGGCGCCGGGAGGGGGG
Kd [19]: 0.4 nM

B26: 2160T (structured_DNA)
DNA: AGGGCGGCGGGCGGGGAAGAGGGCACAGACGGGCGAGGGCCGGGGACCGCGAGGGCAAGGGCACCCGGG
Kd [20]: 0.7 nM

B27: 6183NT (structured_DNA)
DNA: GGGTCGGGGGCGGTGGTGGGCCCGCGGGGG
Kd [21]: 2.2 nM

B28: 7370T (structured_DNA)
DNA: AGGGGCGGCGGGGAGGAGGAGGGGCGCGGGG
Kd [17]: 1.1 nM

B29: 8716T (structured_DNA)
DNA: AGGGAGGACGCGGGGCCGGGGGGCGGAGACGGG
Kd [22]: 3.1 nM

B30: 13173NT (structured_DNA)
DNA: GGGCCGGGACGGGGTCCGGGG
Kd ([2]; G4 mixed): > 30 nM

B31: 8762NT (structured_DNA)
DNA: CGGAGGGCGCGCGGGTCGGGGCGGCGGCGGCGGCGGCGGTGGCGGCGGCGGCGGGGGCGGCGGG
Kd [23]: 0.3 nM
